From patent US5866392A, “Cellobiose oxidase, and enzymatic agent and a process for treating paper pulp” (priority 1992, dated 1999) come the findings set out here.

Substrate in data set [1]: OC[C@H]1O[C@@H](O[C@H]2[C@H](O)[C@@H](O)C(O)O[C@@H]2CO)[C@H](O)[C@@H](O)[C@H]1O
As to the kind of experiment: purified protein, by the assay type. Particulars: other: sugar + 90 μM DCPIP, 0.1M sodium phosphate buffer, pH 7.5, 40° C.

Substrate in data set [2]: O=C1C(Cl)=CC(=Nc2ccc(O)cc2)C=C1Cl
The data set is described as follows: purified protein, by the assay type. The note with it: other: electron acceptor + 225 μM cellobiose, 0.1M sodium phosphate buffer, pH 7.5, 40° C.

Substrate in data set [3]: OC[C@H]1O[C@H](O[C@H]2[C@H](O)[C@@H](O)[C@H](O)O[C@@H]2CO)[C@H](O)[C@@H](O)[C@@H]1O
The data set is described as follows: purified protein, by the assay type. Particulars: other: sugar + 90 μM DCPIP, 0.1M sodium phosphate buffer, pH 7.5, 40° C.

Substrate in data set [4]: CC(C)(C)C1=CC(=O)C(=O)C(C(C)(C)C)=C1
The data set is described as follows: purified protein, by the assay type. The note with it: other: electron acceptor + 225 μM cellobiose, 0.1M sodium phosphate buffer, pH 7.5, 40° C.

Substrate in data set [5]: CN(C)c1ccc2nc3ccc(=[N+](C)C)cc-3sc2c1
As to the kind of experiment: purified protein, by the assay type. Particulars: other: electron acceptor + 225 μM cellobiose, 0.1M sodium phosphate buffer, pH 7.5, 40° C.

Substrate in data set [6]: OC[C@H]1O[C@@H](O[C@H]2[C@H](O)[C@@H](O)[C@H](O[C@H]3[C@H](O)[C@@H](O)[C@H](O[C@H]4[C@H](O)[C@@H](O)C(O)O[C@@H]4CO)O[C@@H]3CO)O[C@@H]2CO)[C@H](O)[C@@H](O)[C@@H]1O
The data set is described as follows: purified protein, by the assay type. Particulars: other: sugar + 90 μM DCPIP, 0.1M sodium phosphate buffer, pH 7.5, 40° C.

Substrate in data set [7]: OC[C@H]1O[C@@H](O[C@H]2[C@H](O)[C@@H](O)[C@H](O[C@H]3[C@H](O)[C@@H](O)C(O)O[C@@H]3CO)O[C@@H]2CO)[C@H](O)[C@@H](O)[C@@H]1O
As to the kind of experiment: purified protein, by the assay type. Particulars: other: sugar + 90 μM DCPIP, 0.1M sodium phosphate buffer, pH 7.5, 40° C.

Substrate in data set [8]: OC[C@H]1O[C@@H](O[C@H]2[C@H](O)[C@@H](O)C(O)O[C@@H]2CO)[C@H](O)[C@@H](O)[C@@H]1O
The data set is described as follows: purified protein, by the assay type. The note with it: other: sugar + 90 μM DCPIP, 0.1M sodium phosphate buffer, pH 7.5, 40° C.

Substrate in data set [9]: OC[C@@H](O)[C@@H](O[C@@H]1O[C@H](CO)[C@@H](O[C@@H]2O[C@H](CO)[C@@H](O[C@@H]3O[C@H](CO)[C@@H](O[C@@H]4O[C@H](CO)[C@@H](O)[C@H](O)[C@H]4O)[C@H](O)[C@H]3O)[C@H](O)[C@H]2O)[C@H](O)[C@H]1O)[C@H](O)[C@@H](O)CO
As to the kind of experiment: Coupled cellobiose oxidase/DCPIP assay for cellulases. Format: biochemical. Particulars: other: CBH II; reduced cellodextrin substrate. The text has this:
(§1) The ability of the cellobiose oxidase to oxidize cellodextrins by means of an electron acceptor was utilized in an assay for cellulases. […] With this assay the kinetic constants for reduced cellodextrins of 5 different cellulases have been determined (table 2). […] The enzymes show very different substrate specificity, some of them requiring quite long substrates making it impossible to use the umbelliferyl cellobiosides and lactosides available for steady state kinetic. […] The inhibition constants were determined for two cellulases using the developed assay.

Substrate in data set [10]: OC[C@@H](O)[C@@H](O[C@@H]1O[C@H](CO)[C@@H](O[C@@H]2O[C@H](CO)[C@@H](O[C@@H]3O[C@H](CO)[C@@H](O)[C@H](O)[C@H]3O)[C@H](O)[C@H]2O)[C@H](O)[C@H]1O)[C@H](O)[C@@H](O)CO
The description is as above. The note with it: other: CBH II; reduced cellodextrin substrate. Format: biochemical.
Description: as §1

Substrate in data set [11]: OC[C@@H](O)[C@@H](O[C@@H]1O[C@H](CO)[C@@H](O[C@@H]2O[C@H](CO)[C@@H](O[C@@H]3O[C@H](CO)[C@@H](O[C@@H]4O[C@H](CO)[C@@H](O[C@@H]5O[C@H](CO)[C@@H](O)[C@H](O)[C@H]5O)[C@H](O)[C@H]4O)[C@H](O)[C@H]3O)[C@H](O)[C@H]2O)[C@H](O)[C@H]1O)[C@H](O)[C@@H](O)CO
The description is as above. Format: biochemical. Particulars: other: CBH II; reduced cellodextrin substrate.
Description: as §1

B1: Humicola insolens cellobiose oxidase (CBO, 92 kDa, pI 4.0) (Mycothermus thermophilus) (protein)
chain: QATGDAYTDSETGIKFQTWSPDPQFTFGLALPPDALEKDATEYIGLLRCTRADPSDPGYCGLSHGQVGQMTQSLLLVAWAYENQVYTSFRYATGYTLPGLYTGNAKLTQLSVNITDTSFELIYRCENCFSWEHEGSTGSSSTSQGYLVLGRASARRGVVGPTCPDTATFGFHDNGFGQWGVGLENAVSEQYSEWASLPGLTVETTCEGSGPGEAQCVPAPEETYDYIVVGAGAGGIPVADKLSEAGHKVLLIEKGPPSTGRWQGTMKPEWLEGTDLTRFDVPGLCNQIWVDSAGIACTDTDQMAGCVLGGGTAVNAGLWWKPIDLDWDENFPEGWHSQDLAAATERVFERIPGTWHPSMDGKLYRDEGYKVLSSGLAESGWKEVVANEVPNEKNRTFAHTHFMFAGGERNGPLATYLVSADARENFSLWTNTAVRRAVRTGGKVTGVELECLTDGGYSGIVKLNEGGGVIFSAGAFGSAKLLFRSGIGPEDQLRVVASSKDGEDFIDEKDWIKLPVGYNLIDHLNTDLILTHPDVVFYDFYEAWTTPIEADKQLYLEQRSGILAQAAPNIGPMMWEQVTPSDGITRQFQWTARVEGDSRFTNSSHAMTLSQYLGRGVVSRGRATITQGLVTTVAEHPYLHNAGDKEAVIQGIKNLIESLNVIPNITWVLPPPGSTVEEYVDSLLVSASARRSNHWMGTAKLGTDDGRYGGTSVVDLDTKVYGTDNLFVVDASIFPGMSTGNPSAMIVIAAEQAAERILKLRK
The Km is the substrate concentration at which the rate is half of its maximum. As usually defined, the kcat is the number of substrate molecules converted per active site and unit of time at saturation. Consider B1, for which the Km was 51 µM in data set [1]; 26 µM in [2]; 11,000 μM in data set [3]; 132 µM in [4]; 18 µM in [5]; 21 µM in data set [6]. For the same protein, the Km in [7] stood at 19 µM; in [8], 11 µM. The kcat in [1] was 10 s⁻¹; in data set [2], 12 s⁻¹; in data set [3] it was 0.83 s⁻¹; in data set [5] it was 1.85 s⁻¹; in data set [8] it was 10 s⁻¹.

B2: CBH II (cellulase) (Mycothermus thermophilus) (protein)
chain: APVVEERQNCAPTWGQCGGIGFNGPTCCQSGSTCVKQNDWYSQCLPGSQVTTTSTTSTSSSSTTSRATSTTRTGGVTSITTAPTRTVTIPGGATTTASYNGNPFEGVQLWANNYYRSEVHTLAIPQITDPALRAAASAVAEVPSFQWLDRNVTVDTLLVETLSEIRAANQAGANPPYAAQIVVYDLPDRDCAAAASNGEWAIANNGANNYKGYINRIREILISFSDVRTILVIEPDSLANMVTNMNVAKCSGAASTYRELTIYALKQLDLPHVAMYMDAGHAGWLGWPANIQPAAELFAKIYEDAGKPRAVRGLATNVANYNAWSISSPPPYTSPNPNYDEKHYIEAFRPLLEARGFPAQFIVDQGRSGKQPTGQKEWGHWCNAIGTGFGMRPTANTGHQYVDAFVWVKPGGECDGTSDTTAARYDYHCGLEDALKPAPEAGQWFQAYFEQLLRNANPPF
As to B2, the Km was 3 µM in [9], 490 µM in data set [10] and 4.7 µM in data set [11].
